The text below walks through data of patent US20060083715A1 (published 2006).

The assay addresses T1, Interferon type I receptors on HeLa cells (UniProt P17181 28-557; P48551 27-515, limits assumed).
T1 sequence (looked up) 1: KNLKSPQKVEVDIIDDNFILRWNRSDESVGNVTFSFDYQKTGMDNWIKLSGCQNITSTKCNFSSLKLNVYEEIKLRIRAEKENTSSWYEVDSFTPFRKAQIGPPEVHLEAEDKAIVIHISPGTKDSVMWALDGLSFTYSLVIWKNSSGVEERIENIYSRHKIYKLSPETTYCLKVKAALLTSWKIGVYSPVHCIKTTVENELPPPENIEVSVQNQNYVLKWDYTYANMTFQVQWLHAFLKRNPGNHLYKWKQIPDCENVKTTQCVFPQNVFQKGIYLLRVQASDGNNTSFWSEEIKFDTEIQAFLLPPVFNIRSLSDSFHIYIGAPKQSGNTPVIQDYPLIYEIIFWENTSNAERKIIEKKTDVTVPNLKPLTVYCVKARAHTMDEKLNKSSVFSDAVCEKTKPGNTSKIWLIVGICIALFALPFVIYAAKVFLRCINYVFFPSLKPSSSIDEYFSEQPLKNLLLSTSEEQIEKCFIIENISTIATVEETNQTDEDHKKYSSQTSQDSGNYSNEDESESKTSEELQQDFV
T1 sequence (looked up) 2: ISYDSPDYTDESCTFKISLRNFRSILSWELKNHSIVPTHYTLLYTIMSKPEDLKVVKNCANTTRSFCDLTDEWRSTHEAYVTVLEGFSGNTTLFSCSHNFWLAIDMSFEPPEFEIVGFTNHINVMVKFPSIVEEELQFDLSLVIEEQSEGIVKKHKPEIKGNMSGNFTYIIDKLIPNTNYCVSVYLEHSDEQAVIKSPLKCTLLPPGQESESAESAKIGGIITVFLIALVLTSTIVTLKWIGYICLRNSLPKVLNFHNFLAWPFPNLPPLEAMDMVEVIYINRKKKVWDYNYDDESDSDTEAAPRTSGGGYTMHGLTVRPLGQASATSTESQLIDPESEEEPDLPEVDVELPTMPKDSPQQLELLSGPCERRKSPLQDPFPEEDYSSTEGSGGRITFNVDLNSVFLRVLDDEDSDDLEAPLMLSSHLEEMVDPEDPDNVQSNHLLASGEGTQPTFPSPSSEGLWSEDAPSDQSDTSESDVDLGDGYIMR
Kind of assay: cell-based or functional assay.

B1: [F111N+R113T] human IFNB variant (ligand)
chain: MSYNLLGFLQRSSNFQCQKLLWQLNGRLEYCLKDRMNFDIPEEIKQLQQFQKEDAALTIYEMLQNIFAIFRQDSSSTGWNETIVENLLANVYHQINHLKTVLEEKLEKEDNTTGKLMSSLHLKRYYGRILHYLKAKEYSHCAWTIVRVEILRNFYFINRLTGYLRN
modifications: introduced in vivo N-glycosylation site at position 111
Consider B1, for which the “specific activity relative to wild-type human IFNB (primary assay)” value was ~2 fold of wild-type human IFNB.
